{
  "source": "paper PMC6222646",
  "about": "“HIV-1 Integrase-Targeted Short Peptides Derived from a Viral Protein R Sequence”",
  "key": {"HIV-1 integrase (IN)": {"target": "HIV-1 integrase (IN) (HIV-1 (strain ), UniProt P12497 1148-1435)", "assay": "fluorescence anisotropy; IN-activity buffer: 50 mM MOPS pH 7.2, 7.5 mM MgCl2, 14 mM 2-mercaptoethanol; 10 nM DNA, +/- 400 nM IN; 5 min room temperature preincubation, anisotropy read every 30 s for 30 min", "conditions": "protein: recombinant; tags: His6 or FLAG constructs described; chain copies: 4; label: AlexaFluor 488 at 5' end of 21T; blunt"}, "[1]": {"target": "Vpr-derived peptide 1a, Vpr(69-75) (HIV-1, UniProt Q73369)", "sequence (Q73369 whole entry, looked up)": "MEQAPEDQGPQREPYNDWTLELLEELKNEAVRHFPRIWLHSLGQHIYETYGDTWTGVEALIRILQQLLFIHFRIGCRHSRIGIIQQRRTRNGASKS", "assay": "fluorescence anisotropy; 7.5 mM MgCl2; peptide up to 37 µM, no IN; IN-activity buffer: 50 mM MOPS pH 7.2, 7.5 mM MgCl2, 14 mM 2-mercaptoethanol; 10 nM DNA, +/- 400 nM IN; 5 min room temperature preincubation, anisotropy read every 30 s for 30 min", "conditions": "label: AlexaFluor 488 at 5' end of 21T; blunt"}},
  "data": [
    {"binder": "21T/21B duplex (HIV-1 viral DNA end substrate) (dsDNA) DNA 1: GTGTGGAAAATCTCTAGCAGT DNA 2: ACTGCTAGAGATTTTCCACAC", "values": [
      {"measurement": "binding result", "setting": "HIV-1 integrase (IN)", "value": "binds"},
      {"measurement": "binding result", "setting": "[1]", "value": "no binding"}
    ]}
  ]
}
